Assay results reported in patent US20110165143A1, “MODULATION OF CASPASES AND THERAPEUTICAL APPLICATIONS” (The Regents of the University of Colorado, a body corporate, priority 2010, published 2011).
Peptide text beside a SMILES is read from it. * marks the point of attachment. Cbz = O=C(OCc1ccccc1)*; CH2F = FC*

Assays:
Fluc-labeled 4T1 cells = test: In vivo tumor growth from a small number of subcutaneously injected Fluc-labeled 4T1 cells; parameters: species or system mice; conditions: about 1000 subcutaneously injected Fluc-labeled 4T1 cells
Description: Growth of Fluc-labeled tumor cells in vivo was followed through non-invasive bioluminescence imaging using the IVIS200 instrument (Caliper Life Sciences, Hopkinton, Mass.). Mice to be imaged were injected with 150 mg/kg of D-luciferin (obtained from Caliper Life Sciences) intraperitoneally in 200 μl of PBS and then anesthetized with continuous flow of isofluorane. Imaging of the mice was carried out 10 minutes later. The time between injection and imaging was kept constant among different batches of mice.
Different approaches were used to establish tumor growth than traditionally adopted by other studies. In most of the studies, only a very small number of Fluc-labeled tumor cells (500-1000 cells each) were injected either alone or together with other unlabeled cells (either tumor cells or fibroblast cells) that were either irradiated or un-irradiated. Tumor growth in these cells was monitored through the quantification of bioluminescence signals emitted from labeled tumor cells by using the IVIS200 instrument following manufacturer's instructions.
As PGE2 had been implicated as a regulator of tumor growth, its effect on in vivo tumor growth was evaluated from a small number of Fluc-labeled 4T1 cells.

4T1Fluc cells [1] = test: Growth of Fluc-labeled tumor cells seeded onto dying feeder cells killed by cytotoxic treatment; format: cell-based, mouse; conditions: dying feeder cells killed by a treatment other than radiation
4T1Fluc cells [2] = test: Growth of 4T1Fluc tumor cells plated with lethally irradiated NIH3T3 cells, bioluminescence imaging; format: cell-based, mouse; conditions: about 1000 4T1Fluc cells plated with lethally irradiated NIH3T3 cells plus inhibitor (FIG. 4)
Description: FIG. 4 is a graph showing the effect of a caspase inhibitor z-VAD-fmk on 4T1Fluc tumor cell growth when plated with lethally irradiated NIH3T3 cells. About 1000 4T1Fluc cells were plated either alone, with non-irradiated NIH3T3 cells, or with lethally irradiated NIH3T3 cells plus a pan-caspase inhibitor z-VAD-fmk.
For imaging luciferase, the IVIS200 instrument from Caliper Life Sciences (Hopkinton, Mass.) was used. For tissue cultured cells, luciferase signal was imaged by adding PBS or colorless OptiMEM medium (Invitrogen, Carlsbad, Calif.) with D-luciferin (Caliper Life Sciences, Hopkinton, Mass.) at a concentration of 0.15 mg/ml. The cells were imaged at a set time point (e.g., 10 minutes) after the administration of D-luciferin. This allowed the signals from different samples to be compared. After images were taken, the manufacturer supplied software was used to process the images for quantitative data.
In order to rule out the possibility that caspase 3 mediates its growth-promoting function through a non-proteolytic mechanism, experiments were conducted using a pan-caspase inhibitor z-VAD-fmk to treat irradiated cells. […] A further, more definitive confirmation came from experiments where a dominant-negative version of caspase 3 was stably transduced into 4T1 cells. The dominant-negative caspase 3 (DN-casp3) differs with wild type caspase 3 in only one amino acid (C163A). […]

IMR90 cells = test: iPSC induction from IMR90 fibroblasts transduced with transcription factor cocktails; format: cell-based, human; conditions: for increase in frequency of OSNL-induced iPSC formation: IMR90 cells; for suppression / reduction in the frequency of iPSC induction: IMR90 cells stably transduced with the agent
Excerpt: The caspase reporters were transduced into human IMR90 fibroblasts via recombinant lentivirus vectors. After puromycin selection to ensure stable integration of the reporters, the iPSC reprogramming process was initiated by infecting caspase reporter-transduced IMR90 cells with recombinant lentivirus vectors carrying 4 transcription factors (Oct-4, Sox2, Nanog, and Lin28, or OSNL in abbreviation) that are known to induce iPSC formation. To avoid the use of myc, which is known to induce caspase activation and might confound the results, the OSNL protocol was chosen because it was shown not to be essential for iPSC induction.
In order to determine whether the observed caspases 3 and 8 activation had any functional relevance in iPSC induction, down-regulation of caspase activities in OSNL-transduced cells was attempted. In the initial experiment, CrmA was we stably transduced through lentiviral vectors, a cow pox virus protein known to suppress caspases 1 and 8 activities, into IMR90 cells. […] This was a very surprising result because logically one would expect that inhibiting caspase activation would lead to increased iPSC generation because of reduced cell death.
Because CrmA inhibits both caspases 1 and 8, more specific approaches were used to determine which caspase was involved. First, a siRNA-based knockdown approach was used. In this approach, lentiviral vectors encoding either caspase 1- or caspase 8-targeted shRNA was used to infect IMR90 cells. After selecting for cells with stable shRNA knockdown (as verified by western blot analysis), they were infected with OSNL lentivector cocktail.
To provide further proof that the cleavage activities of caspases 3 and 8 are necessary for iPSC formation, lentiviral vectors encoding dominant-negative forms of caspases 3 and 8 were constructed. The dominant negative form of human caspase 8 gene (casp8-DN) encodes a virtually identical protein as the wild type except a single amino acid change (i.e. C360A), which disables its catalytic proteolytic function. This dominant negative form was cloned into a recombinant lentiviral vector. Similarly, the dominant negative form of caspase 3 (Casp3-DN), which contains a single mutation (C163A) that disables its proteolytic function, was also cloned into a lentiviral vector.
When IMR90 cells stably transduced with a lentiviral vector encoding casp8-DN were infected with the OSNL lentiviral cocktail, no iPSC induction process was observed.

CCCCC[C@H](O)/C=C/[C@H]1[C@H](O)CC(=O)[C@@H]1C/C=C\CCCC(=O)O [PGE2, prostaglandin E2]
effect on in vivo tumor growth (Fluc-labeled 4T1 cells): significantly stimulate tumor growth

COc1cc([C@@H]2c3cc4c(cc3[C@@H](O[C@@H]3O[C@@H]5CO[C@@H](C)O[C@H]5[C@H](O)[C@H]3O)[C@H]3COC(=O)[C@H]23)OCO4)cc(OC)c1O [etoposide]
growth-enhancing function conferred on dying cells by the cytotoxic treatment (4T1Fluc cells [1]): engender significant growth-enhancing functions to dying cells

COC(=O)C[C@H](NC(=O)[C@H](C)NC(=O)[C@@H](NC(=O)OCc1ccccc1)C(C)C)C(=O)CF [z-VAD-fmk] (Cbz-Val-Ala-Asp(OMe)-CH2F)
effect on growth-promoting properties of irradiated cells towards 4T1Fluc tumor cell growth (4T1Fluc cells [2]): eliminated the growth-promoting properties of irradiated cells

E7: human papilloma virus type 16 E7 protein, known to inhibit Rb function, co-transduced with OSNL
increase in frequency of OSNL-induced iPSC formation (IMR90 cells): ~5 fold

B1: Rb: human Rb gene over-expressed from a lentiviral expression vector (protein, UniProt P06400 2-928, looked up)
Retinoblastoma-associated …: PPKTPRKTAATAAAAAAEPPAPPPPPPPEEDPEQDSGPEDLPLVRLEFEETEEPDFTALCQKLKIPDHVRERAWLTWEKVSSVDGVLGGYIQKKKELWGICIFIAAVDLDEMSFTFTELQKNIEISVHKFFNLLKEIDTSTKVDNAMSRLLKKYDVLFALFSKLERTCELIYLTQPSSSISTEINSALVLKVSWITFLLAKGEVLQMEDDLVISFQLMLCVLDYFIKLSPPMLLKEPYKTAVIPINGSPRTPRRGQNRSARIAKQLENDTRIIEVLCKEHECNIDEVKNVYFKNFIPFMNSLGLVTSNGLPEVENLSKRYEEIYLKNKDLDARLFLDHDKTLQTDSIDSFETQRTPRKSNLDEEVNVIPPHTPVRTVMNTIQQLMMILNSASDQPSENLISYFNNCTVNPKESILKRVKDIGYIFKEKFAKAVGQGCVEIGSQRYKLGVRLYYRVMESMLKSEEERLSIQNFSKLLNDNIFHMSLLACALEVVMATYSRSTSQNLDSGTDLSFPWILNVLNLKAFDFYKVIESFIKAEGNLTREMIKHLERCEHRIMESLAWLSDSPLFDLIKQSKDREGPTDHLESACPLNLPLQNNHTAADMYLSPVRSPKKKGSTTRVNSTANAETQATSAFQTQKPLKSTSLSLFYKKVYRLAYLRLNTLCERLLSEHPELEHIIWTLFQHTLQNEYELMRDRHLDQIMMCSMYGICKVKNIDLKFKIIVTAYKDLPHAVQETFKRVLIKEEEYDSIIVFYNSVFMQRLKTNILQYASTRPPTLSPIPHIPRSPYKFPSSPLRIPGGNIYISPLKSPYKISEGLPTPTKMTPRSRILVSIGESFGTSEKFQKINQMVCNSDRVLKRSAEGSNPPKPLKKLRFDIEGSDEADGSKHLPGESKFQQKLAEMTSTRTRMQKQKMNDSMDTSNKEEK
modifications: lentiviral expression
notes: human Rb gene over-expressed from a lentiviral expression vector
suppression / reduction in the frequency of iPSC induction (IMR90 cells; OSNL lentiviral cocktail): about 50%

B2: shRNA targeted to Rb: lentiviral vector-encoded shRNA against human Rb, Open Biosystems (nucleic acid)
DNA: TGCTGTTGACAGTGAGCGCGGATATAGGATACATCTTTAATAGTGAAGCCACAGATGTATTAAAGATGTATCCTATATCCTTGCCTACTGCCTCGGA
modifications: the letters are possibly those of the target site
notes: lentiviral vector-encoded shRNA against human Rb, Open Biosystems
increase in frequency of OSNL-induced iPSC formation (IMR90 cells): almost doubled

B3: dominant negative caspase 3 (C163A): dominant negative form of caspase 3 with single mutation C163A, lentiviral vector encoded (protein, UniProt P42574 1-277, looked up, variant C163A)
chain: MENTENSVDSKSIKNLEPKIIHGSESMDSGISLDNSYKMDYPEMGLCIIINNKNFHKSTGMTSRSGTDVDAANLRETFRNLKYEVRNKNDLTREEIVELMRDVSKEDHSKRSSFVCVLLSHGEEGIIFGTNGPVDLKKITNFFRGDRCRSLTGKPKLFIIQAARGTELDCGIETDSGVDDDMACHKIPVEADFLYAYSTAPGYYSWRNSKDGSWFIQSLCAMLKQYADKLEFMHILTRVNRKVATEFESFSFDATFHAKKQIPCIVSMLTKELYFYH
modifications: full-length lentiviral vector encoded
notes: dominant negative form of caspase 3 with single mutation C163A, lentiviral vector encoded
suppression / reduction in the frequency of iPSC induction (IMR90 cells; OSNL lentiviral cocktail): about 80%

B4: shRNA targeted to caspase 1: lentiviral vector-encoded shRNA against human caspase 1, Open Biosystems (nucleic acid)
DNA: TGCTGTTGACAGTGAGCGCGCAATCTTTAACATGTTGAATTAGTGAAGCCACAGATGTAATTCAACATGTTAAAGATTGCATGCCTACTGCCTCGGA
modifications: the letters are possibly those of the target site
notes: lentiviral vector-encoded shRNA against human caspase 1, Open Biosystems
suppression / reduction in the frequency of iPSC induction (IMR90 cells; OSNL lentiviral cocktail): no significant effect

B5: casp8-DN: dominant negative form of human caspase 8 (C360A), lentiviral vector encoded (protein, UniProt Q14790 1-479, looked up, variant C360A)
chain: MDFSRNLYDIGEQLDSEDLASLKFLSLDYIPQRKQEPIKDALMLFQRLQEKRMLEESNLSFLKELLFRINRLDLLITYLNTRKEEMERELQTPGRAQISAYRVMLYQISEEVSRSELRSFKFLLQEEISKCKLDDDMNLLDIFIEMEKRVILGEGKLDILKRVCAQINKSLLKIINDYEEFSKERSSSLEGSPDEFSNGEELCGVMTISDSPREQDSESQTLDKVYQMKSKPRGYCLIINNHNFAKAREKVPKLHSIRDRNGTHLDAGALTTTFEELHFEIKPHDDCTVEQIYEILKIYQLMDHSNMDCFICCILSHGDKGIIYGTDGQEAPIYELTSQFTGLKCPSLAGKPKVFFIQAAQGDNYQKGIPVETDSEEQPYLEMDLSSPQTRYIPDEADFLLGMATVNNCVSYRNPAEGTWYIQSLCQSLRERCPRGDDILTILTEVNYEVSNKDDKKNMGKQMPQPTFTLRKKLVFPSD
modifications: full-length lentiviral vector encoded
notes: dominant negative form of human caspase 8 (C360A), lentiviral vector encoded
iPSC clones observed (IMR90 cells; OSNL lentiviral cocktail, after 25 days of culture, wild type IMR90 around 550 clones/5×10^5 cells): No iPSC clones were observed
suppression of iPSC induction (IMR90 cells; transduced together with OSKM): over 95%
